Publication PMC9771723 (iScience, 2022)

Biological target: the molecule itself
Assay: cross-linking

MSLLTEVETPIRNEWGCRCNDSSDPLVVAASIIGILHLILWILDRL (domain or fragment) [M2(1-46) of influenza A/Hong Kong/8/68 (H3N2) in nanodiscs]
stoichiometry N: 4
